Test results reported in patent publication US7867500B2, “Cofactor that modulates steroid receptor activities” (The United States of America as represented by the …, priority 2004, dated 2011).

Biological target: T1, TIF2.4 (Homo sapiens, UniProt Q15596)
T1 sequence (Q15596 624-1010 limits assumed): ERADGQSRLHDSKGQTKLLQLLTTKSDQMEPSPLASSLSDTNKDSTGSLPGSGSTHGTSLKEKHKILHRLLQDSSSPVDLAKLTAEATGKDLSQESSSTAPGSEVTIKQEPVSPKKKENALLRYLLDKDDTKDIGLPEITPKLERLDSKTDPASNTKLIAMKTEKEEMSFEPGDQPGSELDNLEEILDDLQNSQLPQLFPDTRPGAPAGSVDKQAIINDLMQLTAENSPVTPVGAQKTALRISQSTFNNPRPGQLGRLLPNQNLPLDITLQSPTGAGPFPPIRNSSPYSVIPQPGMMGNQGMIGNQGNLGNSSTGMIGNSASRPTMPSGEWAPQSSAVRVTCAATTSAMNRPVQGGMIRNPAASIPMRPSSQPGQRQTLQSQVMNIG
Assay: Mammalian two-hybrid assay in CV-1 cells (pFRLuc reporter) with TIF2.4
Type: cell-based
Set-up: expressed in transfected cells; host or cells: CV-1
Description: FIG. 2A-2C illustrate the isolation and characterization of the partial clone of the protein that binds to TIF2.4. […] Five clones were obtained but only two (clones I and V) contained a protein that was needed for colony growth in the presence of the pSos/TIF2.4 fusion protein. After initial screening, only clone I (also named 6-6CL1) was selected for further investigation. FIG. 2B and FIG. 2C illustrate the selectivity of 6-6CL1 interactions with TIF2.4 in mammalian two-hybrid assays. Triplicate samples of CV-1 cells in 24-well plates were transiently transfected with the indicated GAL-DBD and VP16-AD plasmids along with the GAL4-regulated reporter, pFRLuc. The relative luciferase activity, normalized for the activity of the internal Renilla control, was determined and plotted as the average±S.D. The much lower activity of GAL/TIF2.4m123 was previously shown not to be due to unequal levels of protein expression (He et al., 2002). Similar results were obtained in three additional experiments. FIG. 2D and FIG. 2E provide a comparison of binding to 6-6CL1 by similarly positioned domains of SRC-1 and TIF2. Triplicate samples of CV-1 cells in 24-well plates were analyzed as in (B&C) after being transiently transfected with GAL±6-6CL1 constructs and pFRLuc reporter along with VP16 chimeras of SRC-1 (FIG. 2D) or TIF2 (FIG. 2E) segments. Similar results for SRC-1 were obtained in two additional experiments (ND=not determined). Western blots (FIG. 2F) indicate that the low activity of TIF2(1140C) (see FIG. 1) is not due to inadequate protein expression.
FIGS. 6A and 6B illustrate the domains of STAMP that interact with TIF2.4 (FIG. 6A) and GR (FIG. 6B) in the mammalian two-hybrid assay. […] These CV-1 cells were also transfected with GAL fused to the indicated segments of STAMP along with the FRLuc reporter and Renilla control plasmids. After determining the relative luciferase activities as described in FIG. 2B and 2C, the average values±S.E.M. from 2-5 experiments were plotted. The average fold increase for VP16/TIF2.4 with GAL/STAMP(623-834) in FIG. 6A was 11.0±3.0 (SEM, n=5) above the VP16 control. The values in parentheses above the data bars in FIG. 6B indicate the fold increased interaction ±1 μM Dex.
These assays were conducted as described (He et al., 2002). In particular, the recommended procedure for the Mammalian Matchmaker two-hybrid assay kit (Clontech) was modified slightly by changing from a chloramphenicol acetyltransferase reporter to a Luciferase Reporter pFRLuc (Stratagene), which is under the control of five repeats of the upstream activating sequence for the binding of GAL4.

B1: 6-6CL1: STAMP fragment amino acids 623-834, coactivator interaction domain (CID) (protein)
chain: ENTPKENSMKVREWNNKGGHCCKLETQELEPKFNLMQILQDNGNLSKMQARIAFSAYLQHVQIRLMKDSGGQTFSASWAAKEDEQMELVVRFLKRASNNLQHSLRMVLPSRRLALLERRRILAHQLGDFIIVYNKETEQMAEKKSKKKVEEEEEDGVNMENFQEFIRQASEAELEEVLTFYTQKNKSASVFLGTHSKISKNNNNYSDSGAKG
interaction with TIF2.4: did interact
average fold increase for VP16/TIF2.4 above the VP16 control (SEM, n=5): 11.0±3.0 fold

B2: STAMP834C: STAMP fragment amino acids 834-1277, receptor interaction domain (RID) (protein)
chain: GDHPETIMEEVKIKPPKQQQTTEIHSDKLSRFTTSAEKEAKLVYSNSSSGPTATLQKIPNTHLSSVTTSDLSPGPCHHSSLSQIPSAIPSMPHQPTILLNTVSASASPCLHPGAQNIPSPTGLPRCRSGSHTIGPFSSFQSAAHIYSQKLSRPSSAKAGSCYLNKHHSGIAKTQKEGEDASLYSKRYNQSMVTAELQRLAEKQAARQYSPSSHINLLTQQVTNLNLATGIINRSSASAPPTLRPIISPSGPTWSTQSDPQAPENHSSSPGSRSLQTGGFAWEGEVENNVYSQATGVVPQHKYHPTAGSYQLQFALQQLEQQKLQSRQLLDQSRARHQAIFGSQTLPNSNLWTMNNGAGCRISSATASGQKPTTLPQKVVPPPSSCASLVPKPPPNHEQVLRRATSQKASKGSSAEGQLNGLQSSLNPAASVPITSSTDPAHTKI
interaction with TIF2.4: weak response
